# System: K4 kissing-loop RNA reporter
# Experiment: apparent KD of K4 kissing-loop reporter; higher = weaker reporter binding
# Settings: Eterna round: R107
# Experimental: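 RNA-MaP round R107: designed RNA switches with theophylline, tryptophan, arginine or FMN aptamers are transcribed on-chip within common flanks. They are titrated with a labelled K4 kissing-loop RNA reporter in RNA-MaP buffer (100 mM Tris pH 7.5, 80 mM KCl, 4 mM MgCl2), without ligand or with the indicated ligand. Median apparent KD per design.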
# [1] = input ligand: theophylline 20 uM
# [2] = input ligand: tryptophan 2.4 mM
# 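Note: bound reporter read as fluorescence of individual clusters on recovered sequencing chips by microscopy, with normalized cluster intensities fitted with a binding model.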
Sequence,apparent KD of K4 kissing-loop reporter (input ligand: FMN 200 uM) [nM],apparent KD of K4 kissing-loop reporter (input ligand: arginine 13.2 mM) [nM],apparent KD of K4 kissing-loop reporter (input ligand: none) [nM],apparent KD of K4 kissing-loop reporter [1] [nM],apparent KD of K4 kissing-loop reporter [2] [nM]
ACGCGCGCGAGUGAUGUUCGGAGCGGCUGGCAGGAUAUGCCGCAAGGCAGAAGGGUCGUGGCGCGUCCAGGGUAACCUGGACGCG [#2 Exclusion - FMN A Attempt #28 (HarryS)],190,401,466,391,455
GUAUGUUCGAAAGAACGUACAUCUUCGGAAGGAGCGCGUGAAAACGCAGGUAGGUCGCCGAAGUUAUUAGGUAGUGAUGUUACCU [Arginine A K4 8],128,99.1,101,109,114
AAAAUUAACAAGAGUGAUGUUCUUGUUAGACAGGAUAUCGGUUUAACGAGAAGGGUCGUGGCUCCAUUGGGCCCAGUGGUUCACC [Mazareri],309,478,687,326,439
AUGCGCAGCCUGCUUACGUAUGAGCCGGAAGGAGCGGCAGAAUUGCCAGGUAGGUCGCCGGCCCAGUGAUGUUGGGAUGGUGUGG [Atusqubela],279,167,343,419,264
CAUACGCAUGGAGGAUAUGAGAUUUCUCAUGUCAUUUAAUAUUCUCAGUGAUGUUGAGAAUUUGGCUCAGAAGGCCAUGUGUAUG [Ex FMN B 20],254,465,508,426,403
UUUGUAUAGGGAAGGAGCGUGAAUGAUAAUGAAUAUAGUGAUGUUAUAUAUAAGAAAGAAUCACAGGUAGGUCGCCCGGAUGAGU [SSArgB.L],432,323,477,447,356
AACAACUUGUUUGUCGGGUGUUCGCGCGAUACCAGCCGAAUGGAUGGCCCUUGGCAGCGCAGCGAGUGAUGUUCGCCCGCUUGAC [Exclusion Theophylline A GF 24],611,422,552,529,583
CCUAUCUCAUACGAUACCAGUCCGAGUGAUGUUCGAACAUAAAUUAGUUUGCCAUAUAAUGACCCUUGGCAGCGUAUGGGAUAGG [Ex Theophylline B K4 12],576,448,550,623,522
AGACUACCACACUGUCAAUAGACAGUGAGCUAGGAUAUGCUGAUAAGCAGAAGGAGUGAUGUUCCUAGGUAGUCAAUAAAAUAAU [FmnAX 13 G29],447,462,435,645,493
AAUGCAUUGUGAAGGAGCGCGUUAAGCAGUGAUGUUGCUUUUAUAUUUUUCAGUUUUAUAUCGCAGGUAGGUCGCACUUUGCAUA [JR_Nu_SSArginiB_Sub029],172,158,173,192,148
GCUAUGGUAGGAAGGAGCGCUUAUUUAUUUUUAAGAGUGAUGUUCGAUAGUAGAUAUUUAAAGCAGGUAGGUCGCCUACUAUAGC [Arginine B K4 13],122,159,108,136,71.5
UGUACCGAGUCAGGAUAUGUCGUCGAAAGACGAAAUGGAGUGAUGUUCCUUAAACUGCGAAAGCAGACAGAAGGGAUUUGGUACU [FmnBS 29 U77],207,654,739,738,717
UUUUUGGUUUAGAGUGAUGUUCCUUGUAUUCGAGGACCGGUACGGCCGCCACUCGAAUAGAAAAGAAAAGAAAAGAGUGAUGUUU [BDazzled - #3 SS Tryptophan A],308,229,292,356,252
UGAUACCAGACGGCCGCCACUACACCAGUCAAAGACUGGAUGUGAUGUUUGACCAGUGAUGUUGGUAGGACCGGGUCUGGUAUCU [TrypBX 5 #Palindromic #SwitchBubble #StaticStem],500,394,450,494,326
UGACUGGACUGAAGGAGCGCGAACUCCUAGUGAUGUUAGGAAAUACGAGACAAAGUCUCGACGCAGGUAGGUCGCAGUCUAGUCU [ArgBS 15 #SwitchBubble #StaticStem],110,86.6,107,104,98
UGACAUUGCUCAGAUACCAGACUUGAGGAUCACCCAAGUGCCAAACGUACAAUAAUAAAAGUCCCUUGGCAGCUGAGCAAUGUCU [TheoBX 14],201,13.4,97.2,112,62.1

Sequence,apparent KD of K4 kissing-loop reporter (input ligand: FMN 200 uM) [nM],apparent KD of K4 kissing-loop reporter (input ligand: arginine 13.2 mM) [nM],apparent KD of K4 kissing-loop reporter (input ligand: none) [nM],apparent KD of K4 kissing-loop reporter [1] [nM],apparent KD of K4 kissing-loop reporter [2] [nM]
GCGCGUCAUGUCAGCGGUGACACUGUCGAUACCAGCGCCGAAAGGCGCCCUUGGCAGCGACGUGCUGGAGUGAUGUUCCAGCGUG [#2 Exclusion - Theophylline A Attempt #25 (HarryS)],197,160,182,203,184
AAGCAGUCACUCGCAGCCAUCGAAGAUGGGCGAGGACCGGUACGGCCGCCACUCGGAGUGAUGUUCCGCAGACUGCAAAAUAAAA,536,343,350,437,428
UGUACCGAGUCAGGAUAUGAACGACUGACAAAAGUCGGUCGAAUAUCCAGUGAUGUUGGAAAUAAAUCAGAAGGGACUUGGUACU [FmnBS 15 #SwitchBubble #StaticStem],130,805,974,840,726
CGCGAGUCCUUUCAGUGAGUGAUGUUUACGCGAGGACCGGUACGGCCGCCACUCGAUGGUAUACCAAGACAUCAGCAGAUUGUCU [theeternabot_exclusion_KL_Trp_A_18],304,304,321,387,342
UAACUGCAGUGAUGUUGCAGAUGUCCUGACUAGGAUAUCAGGAAACUGAGAAGGAGUCCCUUCUACUGCAACAAGAAGGAGGACA [[K1]-[K2]-[F1]'-[F1]-[F2]-[F2]'-[K]'-[F]''_Design2],396,347,436,391,408
GCCGUAGAUUGAAGGAGCGUGGACCUAUCGCUUGAACAGUGAUGUUGUUUAUCUAGGGAGCCGCAGGUAGGUCGCAAUCUACGGC,470,355,478,370,386
UGAUAGGACAGAAGGAGCGGAGCUGGUCAAAGACCAGCAAUAACGUUGAAAGGAGUGAUGUUCCAGGUAGGUCGCUGUCCUAUCU [ArgBX 26 #SwitchBubble #StaticStem],121,130,120,163,93.7
ACAGUCGGCUGUGAUACCAGUCGUAUUACAACAUGUUGCAGUGAUGUUGCGAGAUAGGAUGACCCUUGGCAGCACUCAGUACGAC [Same State Theophylline B GF10],208,135,222,252,209
UAGGCCGCAUACAUUAGAUAAGGUACCGAUACCAGCCUCGCACCAGGCCCUUGGCAGCGGCAUCAAAUGGGUAGUGAUGUUACCU [theeternabot_exclusion_KL_Theo_A_20],139,135,159,144,136
GGAUAGGAUAGAGGAUAUGGUAGUGAUGUUACCAAACUGGUUAAACAUGUCAGAAAACUGGCAUGACCAGAAGGCUGUCCUAUCG [FmnBX 27 U9],102,63.4,71,70.5,69.8
UCUGGUAUAUCUGAUACCAGAGUAUAGUAUCAAUUGAAUAUGGAGUGAUGUUCCAUACAACUCCCUUGGCAGCAGAUCUUCCUCU [Same State Theophylline B GF 23],145,206,188,193,124
GGCACUUUUGGUAGAAACCAUCUACCUCUAUAGGAUAUGCCGAAAGGCAGAAGGAUAGACCUACAGAGUGAUGUUCUGCGUGCCU,692,406,719,460,503
AAAUAGAUCAGUCAUCCAGUGAUGUUGGAAGGAGCGUGCGAAAGCACAGGUAGGUCGCCAGAAUAAAAGUGGCUGAUCAAAAUAA,273,318,322,467,178
GAAUUAAUGUCUUUAAUAUAAUAAUCAGAUACCAGUGAUUUGUGACACCCUUGGCAGCUGUAUAGAGUGAUGUUCUUAUACAUAA [#12 K4 Theophylline A Exclusion],352,460,409,509,279
UAAGAGGACCACUACAAGAGUCCUCGAAUACGAGGACCGGUACGGCCGCCACUCGAUAACUUGUAGUGAUGUUGCAAGUAAGAAU [BrourdMod 2 - Jieux - Same State Tryptophan A],80.4,85.6,85.3,97.4,46
AAUUUACAUUAAUUAUUUAAAGGUUCAGAAGGAGCGUGAAUUAACACAGGUAGGUCGCUGAGCGAGUGAUGUUCGCUAUAUACUA [JR_ExcArginiA_Sub003],62.7,68.9,65.7,91.1,49.4
